Experimental data published in US20080051336A1 (Janssen / Centocor, published 2008).
Read-outs that look alike come from different tables or passages of the source. Ends that are not written are not given here.

T1: human LGR7 (human, UniProt Q9HBX9 1-757)
T1 sequence (looked up): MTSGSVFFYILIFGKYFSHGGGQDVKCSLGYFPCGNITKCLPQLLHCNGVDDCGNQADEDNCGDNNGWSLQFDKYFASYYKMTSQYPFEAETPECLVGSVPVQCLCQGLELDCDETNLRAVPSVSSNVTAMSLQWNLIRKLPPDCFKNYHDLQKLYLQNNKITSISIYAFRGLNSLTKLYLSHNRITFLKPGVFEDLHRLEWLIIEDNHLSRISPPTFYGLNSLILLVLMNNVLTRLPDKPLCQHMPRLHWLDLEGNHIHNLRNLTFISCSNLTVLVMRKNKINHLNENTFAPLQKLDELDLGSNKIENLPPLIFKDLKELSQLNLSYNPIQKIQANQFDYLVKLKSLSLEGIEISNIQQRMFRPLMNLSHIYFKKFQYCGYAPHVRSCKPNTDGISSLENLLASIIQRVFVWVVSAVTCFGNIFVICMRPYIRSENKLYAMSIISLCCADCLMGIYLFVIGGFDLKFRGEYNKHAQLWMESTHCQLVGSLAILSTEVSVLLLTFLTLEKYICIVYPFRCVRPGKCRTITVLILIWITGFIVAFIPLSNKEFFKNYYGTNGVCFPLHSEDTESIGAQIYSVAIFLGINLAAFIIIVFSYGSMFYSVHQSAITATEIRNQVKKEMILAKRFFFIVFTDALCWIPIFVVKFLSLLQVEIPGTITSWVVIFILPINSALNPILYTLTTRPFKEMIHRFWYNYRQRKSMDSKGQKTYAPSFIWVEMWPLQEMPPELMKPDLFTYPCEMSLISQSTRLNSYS

T2: human GPCR135 (human, UniProt Q9NSD7 1-469)
T2 sequence: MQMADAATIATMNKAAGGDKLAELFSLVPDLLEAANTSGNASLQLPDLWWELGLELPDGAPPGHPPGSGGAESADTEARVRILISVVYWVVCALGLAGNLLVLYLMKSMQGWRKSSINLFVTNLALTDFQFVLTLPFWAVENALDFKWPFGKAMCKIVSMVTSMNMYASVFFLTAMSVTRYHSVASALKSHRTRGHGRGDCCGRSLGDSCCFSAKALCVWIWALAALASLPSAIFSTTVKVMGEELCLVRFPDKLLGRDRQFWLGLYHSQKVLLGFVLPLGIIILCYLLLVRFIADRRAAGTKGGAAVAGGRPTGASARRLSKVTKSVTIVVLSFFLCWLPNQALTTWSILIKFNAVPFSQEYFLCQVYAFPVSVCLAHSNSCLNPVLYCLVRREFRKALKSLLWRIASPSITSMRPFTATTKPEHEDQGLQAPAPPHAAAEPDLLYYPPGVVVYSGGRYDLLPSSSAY

B1: human INSL3 (ligand)
chain: PTPEMREKLCGHHFVRALVRVCGGPRWSTEANPARYCCLSGCTQQDLLTLC
modifications: ends and bridges not checked; also: 125I-labelled form used as tracer, site not given here
B2: human relaxin-3/INSL6 chimeric polypeptide (R3/I6), mature (ligand)
chain: RAAPYGVRLCGREFIRAVIFTCGGSRWGYSEKCCLTGCTKEELSIAC
modifications: disulfide (positions not given here); also: two chains (relaxin-3 B-chain, INSL6 A-chain), disulfide-linked, chain break not marked
notes: Mature two-chain peptide: human relaxin-3 B-chain disulfide-linked to human INSL6 A-chain; FLAG tag removed
B3: human relaxin-3/relaxin-1 chimeric polypeptide (R3/R1), mature (ligand)
chain: RAAPYGVRLCGREFIRAVIFTCGGSRWPYVALFEKCCLIGCTKRSLAKYC
modifications: disulfide (positions not given here); also: two chains (relaxin-3 B-chain, relaxin-1 A-chain), disulfide-linked, chain break not marked
notes: Mature two-chain peptide: human relaxin-3 B-chain disulfide-linked to human relaxin-1 A-chain; Made in COS-7 cells with furin; the FLAG tag was removed with enterokinase
B4: human relaxin-3/INSL3 chimeric polypeptide (R3/I3), mature (ligand)
chain: RAAPYGVRLCGREFIRAVIFTCGGSRWNPARYCCLSGCTQQDLLTLC
modifications: disulfide (positions not given here); also: two chains (relaxin-3 B-chain, INSL3 A-chain), disulfide-linked, chain break not marked
notes: Mature two-chain peptide: human relaxin-3 B-chain disulfide-linked to human INSL3 A-chain; FLAG tag removed
B5: human relaxin-3/relaxin-2 chimeric polypeptide (R3/R2), mature (ligand)
chain: RAAPYGVRLCGREFIRAVIFTCGGSRWQLYSALANKCCHVGCTKRSLARFC
modifications: disulfide (positions not given here); also: two-chain peptide (relaxin-3 B chain, relaxin-2 A chain), disulfide-linked, places not given here
notes: Mature two-chain peptide: human relaxin-3 B-chain disulfide-linked to human relaxin-2 A-chain; FLAG tag removed

Tests used:
human LGR7 [1] = target: T1, human LGR7; experiment: cell-based or functional assay
human LGR8 [2] = target: T3, human LGR8 (human, UniProt Q8WXD0 1-754); experiment: cell-based or functional assay
T3 sequence (Q8WXD0 whole entry): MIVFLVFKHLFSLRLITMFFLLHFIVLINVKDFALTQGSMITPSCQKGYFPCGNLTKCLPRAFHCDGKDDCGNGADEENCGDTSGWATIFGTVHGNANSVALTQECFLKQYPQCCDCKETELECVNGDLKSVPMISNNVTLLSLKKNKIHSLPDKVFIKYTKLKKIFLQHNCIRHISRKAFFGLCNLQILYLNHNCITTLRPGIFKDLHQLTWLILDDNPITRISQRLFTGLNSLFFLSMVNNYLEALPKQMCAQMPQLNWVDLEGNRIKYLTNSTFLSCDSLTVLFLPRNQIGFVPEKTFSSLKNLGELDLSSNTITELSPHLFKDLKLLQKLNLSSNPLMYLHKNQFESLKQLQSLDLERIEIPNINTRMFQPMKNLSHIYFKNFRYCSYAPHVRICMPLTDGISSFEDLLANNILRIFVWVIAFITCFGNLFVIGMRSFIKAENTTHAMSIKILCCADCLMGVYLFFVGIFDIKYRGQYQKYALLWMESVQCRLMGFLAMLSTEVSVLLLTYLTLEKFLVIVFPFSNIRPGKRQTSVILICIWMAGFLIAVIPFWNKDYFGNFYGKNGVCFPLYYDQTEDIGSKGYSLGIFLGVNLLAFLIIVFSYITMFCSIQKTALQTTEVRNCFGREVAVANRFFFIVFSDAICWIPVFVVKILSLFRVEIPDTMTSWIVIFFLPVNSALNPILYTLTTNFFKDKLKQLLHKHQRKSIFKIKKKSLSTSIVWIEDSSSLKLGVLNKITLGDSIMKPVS

human GPCR135 [3] = target: T2, human GPCR135; experiment: cell-based or functional assay
human GPCR142 [4] = target: T4, human GPCR142 (human, UniProt Q8TDU9 1-374); experiment: cell-based or functional assay
T4 sequence (Q8TDU9 whole entry L329S): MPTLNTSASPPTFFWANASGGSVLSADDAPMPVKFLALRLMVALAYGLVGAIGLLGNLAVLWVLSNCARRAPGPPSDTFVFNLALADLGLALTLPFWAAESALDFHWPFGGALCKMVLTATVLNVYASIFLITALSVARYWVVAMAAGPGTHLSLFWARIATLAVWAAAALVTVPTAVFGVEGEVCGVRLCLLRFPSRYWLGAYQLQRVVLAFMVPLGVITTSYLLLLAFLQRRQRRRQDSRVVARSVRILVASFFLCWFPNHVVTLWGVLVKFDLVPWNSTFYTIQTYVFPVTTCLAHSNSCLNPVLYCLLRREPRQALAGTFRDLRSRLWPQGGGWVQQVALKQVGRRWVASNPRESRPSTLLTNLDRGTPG

human LGR8 [5] = target: T3, human LGR8; experiment: cell-based or functional assay; remark: listed apart in the source
human GPCR135 [6] = target: T2, human GPCR135; experiment: cell-based or functional assay; remark: listed apart in the source
human GPCR142 [7] = target: T4, human GPCR142; experiment: cell-based or functional assay; remark: listed apart in the source
human LGR7 [8] = target: T1, human LGR7; experiment: cell-based or functional assay; remark: listed apart in the source
human GPCR135 [9] = target: T2, human GPCR135; experiment: cell-based or functional assay; remark: listed apart in the source
human GPCR142 [10] = target: T4, human GPCR142; experiment: cell-based or functional assay; remark: listed apart in the source
human LGR7 [11] = target: T1, human LGR7; experiment: cell-based or functional assay; remark: listed apart in the source
human LGR7 [12] = target: T1, human LGR7; experiment: radioligand competition, live COS-7 cells with human LGR7
Procedure: (§1) Different unlabeled peptides were used in the binding assay as the competitors. […] Data represent mean±SEM (n=3).
(§2) Radioligand binding assays for LGR7 and LGR8 were performed using live COS-7 cells transiently transfected with LGR7 or LGR8 expression plasmids in 15-cm culture dishes using LipofectAmine (Invitrogen). Two days after transfection, the transfected cells were detached from the 15-cm culture dished using phosphate buffered saline (PBS) plus 10 mM EDTA, seeded into 96-well opaque poly-D-lysine coated culture plates and used for radioligand binding assays. […] [¹²⁵I]-labeled tracer was added in binding reactions at a final concentration of 100 pM in binding buffer containing DMEM plus 50 mM HEPES and 1% bovine serum albumin. […] The binding mixtures were incubated at room temperature for 1 hour. The unbound radioligand was removed by aspiration of the binding buffer. The cells were washed with PBS. The bound radioligand was counted in a scintillation counter (TopCount/NTX). The results were analyzed using Prism 3.0 program (Graphpad, San Diego, Calif.).

human LGR7 [13] = target: T1, human LGR7; experiment: competition with [125I]-relaxin-3 (100 pM), live COS-7 cells with human LGR7
Procedure: as §1, §2

human GPCR135 [14] = target: T2, human GPCR135; experiment: competition with [125I]-relaxin-3 (100 pM), COS-7 membranes with human GPCR135
Procedure: as §1
(§3) Peptides for competition binding studies were added to the binding mix (final volume: 200 μl) in binding buffer [50 mM Tris-HCl, pH 7.5, 5 mM EDTA, 1% bovine serum albumin, 0.1% protease inhibitor cocktails (Sigma)]. The binding mixtures were incubated at room temperature for 1 hour, filtered through GFC plates (Packard) pre-saturated with 0.3% Polyethylenimine (Sigma), and washed with cold washing buffer (50 mM Tris-HCl, pH 7.5, 5 mM EDTA).

human GPCR142 [15] = target: T4, human GPCR142; experiment: competition with [125I]-relaxin-3 (100 pM), COS-7 membranes with human GPCR142
Procedure: as §1, §3

human LGR8 [16] = target: T3, human LGR8; experiment: competition with [125I]-INSL3 (100 pM) on live COS-7 cells expressing human LGR8; ND denotes no activity was detected
Procedure: as §1, §2

human LGR8 [17] = target: T3, human LGR8; experiment: cell-based or functional assay; remark: listed apart in the source
human LGR8 [18] = target: T3, human LGR8; experiment: competition with [125I]-INSL3 (100 pM), live COS-7 cells with human LGR8
Procedure: as §1, §2

human LGR8 [19] = target: T3, human LGR8; experiment: competition with [125I]-INSL3, live COS-7 cells with human LGR8; this end tied to R3/I3 by Table 1
Procedure: as §1, §2

| Molecule | EC50, ligand stimulated β-galactosidase expression (human LGR7 [8]) | EC50, inhibition of forskolin stimulated β-galactosidase expression (human GPCR135 [9]) | EC50, inhibition of forskolin stimulated β-galactosidase expression (human GPCR142 [10]) | EC50, ligand stimulated β-galactosidase expression (human LGR7 [11]) | IC50 (human LGR7 [13]) | IC50 (human GPCR135 [14]) | IC50 (human GPCR142 [15]) | EC50, ligand stimulated β-galactosidase expression (human LGR8 [17]) | IC50 (human LGR8 [18]) | other results |
| --- | --- | --- | --- | --- | --- | --- | --- | --- | --- | --- |
| porcine relaxin (from UniProt P01348 25-182) (ligand) |  |  |  |  |  |  |  |  |  | EC50, stimulation of β-galactosidase activity (human LGR7 [1]): 0.25 nM; EC50, induction of β-galactosidase activity (human LGR8 [2]): 1.5 nM |
| human relaxin-3 B-chain (from UniProt Q8WXF3 26-52) (peptide) |  |  |  |  |  |  |  |  |  | EC50, inhibition of forskolin-stimulated β-galactosidase activity (human GPCR135 [3]): 88 nM; EC50, inhibition of forskolin-stimulated β-galactosidase activity (human GPCR142 [4]): 125 nM |
| B1 |  |  |  |  |  |  |  |  |  | EC50, induction of β-galactosidase activity (human LGR8 [5]): 0.16 nM |
| B2 | 10 nM | 8.4 nM | 11.2 nM | 13.7 nM | 12.9 nM | 9.5 nM | 11.3 nM |  |  | EC50, inhibition of forskolin stimulated β-galactosidase expression (human GPCR135 [6]): ~10 nM; EC50, inhibition of forskolin stimulated β-galactosidase expression (human GPCR142 [7]): ~10 nM; IC50 (human LGR7 [12]): 15 nM; binding result (human LGR8 [16]): no binding |
| B3 | 1 to 5 nM | 1.8 nM | 2.2 nM | 4.5 nM | 5.1 nM | 2.9 nM | 2.6 nM | > 1000 nM | > 1000 nM |  |
| B4 |  | 2.2 nM | 2.9 nM | 2.5 nM | 2.3 nM | 2.3 nM | 3.5 nM | 258 nM | 475 nM | EC50, ligand stimulated β-galactosidase expression (human LGR8 [5]): ~300 nM; IC50 (human LGR8 [19]): 500 nM |
| B5 | 1 to 5 nM | 1.1 nM | 1.4 nM | 1.1 nM | 1.5 nM | 1.2 nM | 1.8 nM | 575 nM | 615 nM | EC50, ligand stimulated β-galactosidase expression (human LGR8 [5]): ~600 nM |
